Measured values from publication PMC5527686 (Journal of molecular biology, 2017).
Where a chain is given by its changes, count along the chain named. Names may count otherwise.

B1: IreB Y79E (purified recombinant) (natural protein, Enterococcus faecalis)
chain: MGFTDETVRFDFDDNRKKAISETLETVYRALEEKGYNPINQIVGYLLSGDPAYIPRYQDARNLIRRHERDEIMEELTKEYLANHGIDIK
B2: IreB L81W (purified recombinant) (natural protein, Enterococcus faecalis)
chain: B1 chain with E79Y, L81W
B3: IreB (purified recombinant wild-type) (natural protein)
chain: B1 chain with E79Y

Legend:
[1] = target: the molecule itself; assay: SEC
[2] = target: the molecule itself; assay: AUC

Row | Protein | stoichiometry N [1] | stoichiometry N [2]
1 | B1 | 2 | 
2 | B2 | 2 | 
3 | B3 | 2 | 2.05
